Assay results as given in publication PMC12835413, “Allosteric zinc inhibition and interdomain regulation govern the catalytic mechanism of the E3-independent ubiquitin-conjugating enzyme hUBE2O” (The Journal of Biological Chemistry, 2025).

Target: the molecule itself
Test: SEC-MALS; 100 ul of 2 mg/ml purified Flag-UBE2O-TwinStrep on Superdex 200 Increase 5/150 GL; 50 mM Tris-HCl pH 7.4, 200 mM NaCl, 0.5 mM TCEP

B1: Flag-UBE2O-TwinStrep (purified recombinant Homo sapiens UBE2O) (enzyme, human, UniProt Q9C0C9 1-1292, looked up)
chain: MADPAAPTPAAPAPAQAPAPAPEAVPAPAAAPVPAPAPASDSASGPSSDSGPEAGSQRLLFSHDLVSGRYRGSVHFGLVRLIHGEDSDSEGEEEGRGSSGCSEAGGAGHEEGRASPLRRGYVRVQWYPEGVKQHVKETKLKLEDRSVVPRDVVRHMRSTDSQCGTVIDVNIDCAVKLIGTNCIIYPVNSKDLQHIWPFMYGDYIAYDCWLGKVYDLKNQIILKLSNGARCSMNTEDGAKLYDVCPHVSDSGLFFDDSYGFYPGQVLIGPAKIFSSVQWLSGVKPVLSTKSKFRVVVEEVQVVELKVTWITKSFCPGGTDSVSPPPSVITQENLGRVKRLGCFDHAQRQLGERCLYVFPAKVEPAKIAWECPEKNCAQGEGSMAKKVKRLLKKQVVRIMSCSPDTQCSRDHSMEDPDKKGESKTKSEAESASPEETPDGSASPVEMQDEGAEEPHEAGEQLPPFLLKEGRDDRLHSAEQDADDEAADDTDDTSSVTSSASSTTSSQSGSGTSRKKSIPLSIKNLKRKHKRKKNKITRDFKPGDRVAVEVVTTMTSADVMWQDGSVECNIRSNDLFPVHHLDNNEFCPGDFVVDKRVQSCPDPAVYGVVQSGDHIGRTCMVKWFKLRPSGDDVELIGEEEDVSVYDIADHPDFRFRTTDIVIRIGNTEDGAPHKEDEPSVGQVARVDVSSKVEVVWADNSKTIILPQHLYNIESEIEESDYDSVEGSTSGASSDEWEDDSDSWETDNGLVEDEHPKIEEPPIPPLEQPVAPEDKGVVISEEAATAAVQGAVAMAAPMAGLMEKAGKDGPPKSFRELKEAIKILESLKNMTVEQLLTGSPTSPTVEPEKPTREKKFLDDIKKLQENLKKTLDNVAIVEEEKMEAVPDVERKEDKPEGQSPVKAEWPSETPVLCQQCGGKPGVTFTSAKGEVFSVLEFAPSNHSFKKIEFQPPEAKKFFSTVRKEMALLATSLPEGIMVKTFEDRMDLFSALIKGPTRTPYEDGLYLFDIQLPNIYPAVPPHFCYLSQCSGRLNPNLYDNGKVCVSLLGTWIGKGTERWTSKSSLLQVLISIQGLILVNEPYYNEAGFDSDRGLQEGYENSRCYNEMALIRVVQSMTQLVRRPPEVFEQEIRQHFSTGGWRLVNRIESWLETHALLEKAQALPNGVPKASSSPEPPAVAELSDSGQQEPEDGGPAPGEASQGSDSEGGAQGLASASRDHTDQTSETAPDASVPPSVKPKKRRKSYRSFLPEKSGYPDIGFPLFPLSKGFIKSIRGVLTQFRAALLEAGMPECTEDK
notes: Homo sapiens UBE2O (ubiquitin-conjugating enzyme E2O), UniProt Q9C0C9, from plasmid pLV-Flag-hUBE2O-TS; also called hUBE2O; Flag-hUBE2O-TwinStrep; source: Expi293F cells, purified; not shown: Flag, N-terminal, kept
stoichiometry N: 2
